According to doi:10.1101/2025.08.04.668577 (bioRxiv, 2025):

Target: E2 ectodomain of HCV strain 1a154 (Hepatitis C virus genotype 1a, isolate …, strain)
Assay: ELISA

B1: HEPC108 IgG (antibody, V domains shown)
VH: QVQLVQSGAEVKKPGSSVKVSCKASGDTFSSSAISWVRQAPGQGLEWMGGSIPIFGATKYAQKFQGRVTITTDKSTSTAYMELSSLRFEDTAVYYCARASIVNISGFVRFRFDSWGQGTLVTVSS
VL: DIQMTQSPSSLSASVGDRVTITCQASQDISNYLNWYQQKPGKAPKLLIYDVSNLEIGVPSRFSGSGSGTEFTLTINSLQPEDLATYFCQHYDDVPPVYTFGQGTSLEIK
- binding result: binds
